Test results: the RNAGym collection of RNA variant scans (doi:10.7554/elife.80360)

B1: CPEB3 Ribozyme (parent)
chain: GGGGGCCACAGCAGAAGCGUUCACGUCGCGGCCCCUGUCAGAUUCUGGUGAAUCUGCGAAUUCUGCUGU

Variants of: B1
Test: self-cleavage, relative activity (ratio to wild type); higher = more cleavage; co-transcriptional

Row | Variant | self-cleavage
1 | GGGGGCCACAGCAGAAGCGUUCACGUCGCGGCCACUGUCAGAAUCUGGUGAAUCUGCGAAUUCUGCUGU [C34A U43A] | 0.514
2 | GGGGGCCACAGCAGAAGCGUUCACGUCGCGGCCGCUGUCAGAUUUUGGUGAAUCUGCGAAUUCUGCUGU [C34G C45U] | 0.746
3 | GGGGGCCACAGCAGAAGCGUUCACGUCGCGGCCGCUGUCAGAUUAUGGUGAAUCUGCGAAUUCUGCUGU [C34G C45A] | 0.641
4 | GGGGGCCACAGCAGAAGCGUUCACGUCGCGGCCGCUGUCAGAUUGUGGUGAAUCUGCGAAUUCUGCUGU [C34G C45G] | 0.604
5 | GGGGGCCACAGCAGAAGCGUUCACGUCGCGGCCGCUGUCAGAUUCGGGUGAAUCUGCGAAUUCUGCUGU [C34G U46G] | 0.766
6 | GGGGGCCACAGCAGAAGCGUUCACGUCGCGGCCGCUGUCAGAUUCAGGUGAAUCUGCGAAUUCUGCUGU [C34G U46A] | 0.776
7 | GGGGGCCACAGCAGAAGCGUUCACGUCGCGGCCACUGUCAGAUUCUGGUGAAUCGGCGAAUUCUGCUGU [C34A U55G] | 0.357
8 | GGGGGCCACAGCAGAAGCGUUCACGUCGCGGCCACUGUCAGAUUCUGGUGAAUCCGCGAAUUCUGCUGU [C34A U55C] | 0.264
9 | GGGGGCCACAGCAGAAGCGUUCACGUCGCGGCCGCUGUCACAUUCUGGUGAAUCUGCGAAUUCUGCUGU [C34G G41C] | 0.296
10 | GGGGGCCACAGCAGAAGCGUUCACGUCGCGGCCGCUGUCAAAUUCUGGUGAAUCUGCGAAUUCUGCUGU [C34G G41A] | 0.318
11 | GGGGGCCACAGCAGAAGCGUUCACGUCGCGGCCGCUGUCAUAUUCUGGUGAAUCUGCGAAUUCUGCUGU [C34G G41U] | 0.33
12 | GGGGGCCACAGCAGAAGCGUUCACGUCGCGGCCACUGUCAGAUUCUGGUGAACCUGCGAAUUCUGCUGU [C34A U53C] | 0.565
13 | GGGGGCCACAGCAGAAGCGUUCACGUCGCGGCCACUGUCAGAUUCUGGUGAAGCUGCGAAUUCUGCUGU [C34A U53G] | 0.331
14 | GGGGGCCACAGCAGAAGCGUUCACGUCGCGGCCACUGUCAGAUUCUGGUGAAACUGCGAAUUCUGCUGU [C34A U53A] | 0.409
15 | GGGGGCCACAGCAGAAGCGUUCACGUCGCGGCCGCUGUCAGACUCUGGUGAAUCUGCGAAUUCUGCUGU [C34G U43C] | 0.547
16 | GGGGGCCACAGCAGAAGCGUUCACGUCGCGGCCGCUGUCAGAGUCUGGUGAAUCUGCGAAUUCUGCUGU [C34G U43G] | 0.383
17 | GGGGGCCACAGCAGAAGCGUUCACGUCGCGGCCGCCGUCAGAUUCUGGUGAAUCUGCGAAUUCUGCUGU [C34G U36C] | 0.819
18 | GGGGGCCACAGCAGAAGCGUUCACGUCGCGGCCGCGGUCAGAUUCUGGUGAAUCUGCGAAUUCUGCUGU [C34G U36G] | 0.263
19 | GGGGGCCACAGCAGAAGCGUUCACGUCGCGGCCGCUGUAAGAUUCUGGUGAAUCUGCGAAUUCUGCUGU [C34G C39A] | 0.394
20 | GGGGGCCACAGCAGAAGCGUUCACGUCGCGGCCGAUGUCAGAUUCUGGUGAAUCUGCGAAUUCUGCUGU [C34G C35A] | 0.196

Row | Variant | self-cleavage
21 | GGGGGCCACAGCAGAAGCGUUCACGUCGCGGCCGUUGUCAGAUUCUGGUGAAUCUGCGAAUUCUGCUGU [C34G C35U] | 0.29
22 | GGGGGCCACAGCAGAAGCGUUCACGUCGCGGCCGGUGUCAGAUUCUGGUGAAUCUGCGAAUUCUGCUGU [C34G C35G] | 0.244
23 | GGGGGCCACAGCAGAAGCGUUCACGUCGCGGCCGCUGUCAGAUUCUGGUGAAUGUGCGAAUUCUGCUGU [C34G C54G] | 0.343
24 | GGGGGCCACAGCAGAAGCGUUCACGUCGCGGCCGCUGUCAGAUUCUGGUGAAUUUGCGAAUUCUGCUGU [C34G C54U] | 0.708
25 | GGGGGCCACAGCAGAAGCGUUCACGUCGCGGCCGCUGUCAGAUUCUGGUGAAUAUGCGAAUUCUGCUGU [C34G C54A] | 0.368
26 | GGGGGCCACAGCAGAAGCGUUCACGUCGCGGCCGCUGUCAGAUUCUGGUGAAUCUGCGAAUUCUGCUUU [C34G G68U] | 0.929
27 | GGGGGCCACAGCAGAAGCGUUCACGUCGCGGCCGCUGUCAGAUUCUGGUGAAUCUGCGAAUUCUGCUCU [C34G G68C] | 0.842
28 | GGGGGCCACAGCAGAAGCGUUCACGUCGCGGCCGCUGUCAGAUUCUGGUCAAUCUGCGAAUUCUGCUGU [C34G G50C] | 0.64
29 | GGGGGCCACAGCAGAAGCGUUCACGUCGCGGCCGCUGUCAGAUUCUGGUUAAUCUGCGAAUUCUGCUGU [C34G G50U] | 0.839
30 | GGGGGCCACAGCAGAAGCGUUCACGUCGCGGCCACUGUCAGAUUCGGGUGAAUCUGCGAAUUCUGCUGU [C34A U46G] | 0.843
31 | GGGGGCCACAGCAGAAGCGUUCACGUCGCGGCCGCUGUCAGCUUCUGGUGAAUCUGCGAAUUCUGCUGU [C34G A42C] | 0.317
32 | GGGGGCCACAGCAGAAGCGUUCACGUCGCGGCCGCUUUCAGAUUCUGGUGAAUCUGCGAAUUCUGCUGU [C34G G37U] | 0.171
33 | GGGGGCCACAGCAGAAGCGUUCACGUCGCGGCCGCUAUCAGAUUCUGGUGAAUCUGCGAAUUCUGCUGU [C34G G37A] | 0.24
34 | GGGGGCCACAGCAGAAGCGUUCACGUCGCGGCCGCUGUCAGAUUCUGGUGAUUCUGCGAAUUCUGCUGU [C34G A52U] | 0.661
35 | GGGGGCCACAGCAGAAGCGUUCACGUCGCGGCCGCUGACAGAUUCUGGUGAAUCUGCGAAUUCUGCUGU [C34G U38A] | 0.733
36 | GGGGGCCACAGCAGAAGCGUUCACGUCGCGGCCGCUGUCAGAUGCUGGUGAAUCUGCGAAUUCUGCUGU [C34G U44G] | 0.446
37 | GGGGGCCACAGCAGAAGCGUUCACGUCGCGGCCGCUGUCAGAUCCUGGUGAAUCUGCGAAUUCUGCUGU [C34G U44C] | 0.578
38 | GGGGGCCACAGCAGAAGCGUUCACGUCGCGGCCGCUGUCAGAUUCUGGUGAAUCUGCGUAUUCUGCUGU [C34G A59U] | 0.234
39 | GGGGGCCACAGCAGAAGCGUUCACGUCGCGGCCGCUGUCAGAUUCUGGUGAAUCUGCGGAUUCUGCUGU [C34G A59G] | 0.538
